Measurements taken from patent publication CN105646705A.

Target: 原核表达的重组人GFAP蛋白 (PET28a-GFAP, 大肠杆菌BL21表达, Ni-NTA纯化) (human) (UniProt P14136)
Test: direct ELISA, purified GFAP coated at 10 μg/ml, purified antibody diluted 1:200 to 1:12800, goat anti-mouse IgG-HRP, OD450

Sequence of UniProt P14136 (P14136 other isoform, or with tags, fused parts or gaps): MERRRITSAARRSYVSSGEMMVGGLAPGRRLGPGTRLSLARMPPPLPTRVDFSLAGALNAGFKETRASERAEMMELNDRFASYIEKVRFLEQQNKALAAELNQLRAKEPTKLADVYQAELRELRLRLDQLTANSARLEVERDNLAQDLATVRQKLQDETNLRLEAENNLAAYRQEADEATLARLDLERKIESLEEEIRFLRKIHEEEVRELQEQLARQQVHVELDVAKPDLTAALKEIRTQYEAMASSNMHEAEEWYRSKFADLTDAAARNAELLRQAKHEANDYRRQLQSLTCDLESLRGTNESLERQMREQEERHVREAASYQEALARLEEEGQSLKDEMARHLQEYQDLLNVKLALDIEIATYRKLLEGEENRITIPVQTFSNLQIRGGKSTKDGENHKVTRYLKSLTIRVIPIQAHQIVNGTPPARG

ELISA滴度 (dilution factor (1:x)): > 10000
B1: 小鼠抗人GFAP单克隆抗体 5C8 (杂交瘤细胞株5C8, CGMCC No.6915) (antibody, part only; not given: light chain variable region, V domains shown, part only)
VH: LASTATGVHSQVQLQQPGAELVRPGASVKLSCKASGYTFTSYWMNWVKQRPGQGLEWIGMINPSDSEIQYNQMFKDKATLTVDKSSSTAYIHLTSLTSEDSAVYYCARGLGRYWGQGTTLTVSPASTTPPSV
